Experimental findings from PMC6101370 are described below.

For this experiment, the target named is T1, histidine kinase EnvZ from Escherichia coli (Escherichia coli) (UniProt P0AEJ4).
T1 sequence (P0AEJ4 whole entry, looked up): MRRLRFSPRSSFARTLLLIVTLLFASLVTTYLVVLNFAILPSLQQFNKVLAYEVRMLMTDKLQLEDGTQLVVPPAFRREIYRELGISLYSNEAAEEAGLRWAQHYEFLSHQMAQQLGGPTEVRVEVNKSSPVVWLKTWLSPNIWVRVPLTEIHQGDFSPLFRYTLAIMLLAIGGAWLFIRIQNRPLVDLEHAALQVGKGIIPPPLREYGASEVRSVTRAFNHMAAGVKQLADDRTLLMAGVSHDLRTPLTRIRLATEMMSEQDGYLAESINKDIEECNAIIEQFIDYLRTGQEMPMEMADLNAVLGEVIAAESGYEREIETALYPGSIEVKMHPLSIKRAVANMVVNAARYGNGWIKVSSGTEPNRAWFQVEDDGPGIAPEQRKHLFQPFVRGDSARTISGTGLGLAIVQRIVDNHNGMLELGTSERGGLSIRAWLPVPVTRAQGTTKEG

B1: Spo0F M55L (natural protein)
chain: MMNEKILIVDDQYGIRILLNEVFNKEGYQTFQAANGLQALDIVTKERPDLVLLDLKIPGMDGIEILKRMKVIDENIRVIIMTAYGELDMIQESKELGALTHFAKPFDIDEIRDAVKKYLPLKSN
Regarding B1, the in vitro phosphotransfer rate from EnvZ, ratio v (mutant) / v (w.t.) was determined as 1.

B2: Spo0F I108L (natural protein)
chain: MMNEKILIVDDQYGIRILLNEVFNKEGYQTFQAANGLQALDIVTKERPDLVLLDMKIPGMDGIEILKRMKVIDENIRVIIMTAYGELDMIQESKELGALTHFAKPFDLDEIRDAVKKYLPLKSN
For B2, the in vitro phosphotransfer rate from EnvZ, ratio v (mutant) / v (w.t.) was determined as 1.
